Paper PMC11095200

Target: StAR (UniProt P51557)
Assay: co-immunoprecipitation and western blot
Settings: reference: wild-type 14-3-3γ; sites S71

binding against the reference: weaker
Substance: 14-3-3γ (from UniProt P61982) S71A 14-3-3γ
